In PMC2034677 (Molecular microbiology, 2002):

Molecular target: the molecule itself
Experiment: native gel or EMSA

B1: GST–endoE fusion protein (recombinant bacteriophage K1E endosialidase, wild type) (enzyme, UniProt P49714 1-706, looked up)
chain: MIQRLGSSLVKFKSKIAGAIWRNLDDKLTEVVSLKDFGAKGDGKTNDQDAVNAAMASGKRIDGAGATYKVSSLPDMERFYNTRFVWERLAGQPLYYVSKGFINGELYKITDNPYYNAWPQDKAFVYENVIYAPYMGSDRHGVSRLHVSWVKSGDDGQTWSTPEWLTDMHPDYPTVNYHCMSMGVCRNRLFAMIETRTLAKNELTNCALWDRPMSRSLHLTGGITKAANQRYATIHVPDHGLFVGDFVNFSNSAVTGVSGDMKVATVIDKDNFTVLTPNQQTSDLNNAGKNWHMGTSFHKSPWRKTDLGLIPRVTEVHSFATIDNNGFVMGYHQGDVAPREVGLFYFPDAFNSPSNYVRRQIPSEYEPDAAEPCIKYYDGVLYLITRGTRGDRLGSSLHRSRDIGQTWESLRFPHNVHHTTLPFAKVGDDLIMFGSERAENEWEAGAPDDRYKASYPRTFYARLNVNNWNADDIEWVNITDQIYQGDIVNSSVGVGSVVVKDSFIYYIFGGENHFNPMTYGDNKDKDPFKGHGHPTDIYCYKMQIANDNRVSRKFTYGATPGQAIPTFMGTDGIRNIPAPLYFSDNIVTEDTKVGHLTLKASTSANIRSEMQMEGEYGFIGKSVPKDKPTGQRLIICGGEGTSSSSGAQITLHGSNSSNAKRITYNGNEHLFQGAPIMPAVDNQFAAGGPSNRFTTIYLGSDPVTTS
Q: For B1, which “stoichiometry N” value is on record?
A: 3
